From patent US20240117055A1

Experiments:
[1] = target: Recombinant Human Axl Protein Axl-tag 5 (human) (UniProt P30530); assay: competition ELISA on immobilized Axl-tag 5; unlabeled antibody 50 ug/mL; competitor Biot-M77-297b81.1.1 (1 ug/mL), whose signal is read
[2] = target: Recombinant Human Axl Protein Axl-tag 5 (human) (UniProt P30530); assay: competition ELISA on immobilized Axl-tag 5; unlabeled antibody 50 ug/mL; competitor Biot-v77-2a37.1 (1 ug/mL)
[3] = target: Recombinant Human Axl Protein Axl-tag 5 (human) (UniProt P30530); assay: competition ELISA on immobilized Axl-tag 5; unlabeled antibody 50 ug/mL; competitor Biot-v77-2a37.1 (1 ug/mL), whose signal is read
[4] = target: Recombinant Human Axl Protein Axl-tag 5 (human) (UniProt P30530); assay: competition ELISA on immobilized Axl-tag 5; unlabeled antibody 50 ug/mL; competitor Biot-M77-297b81.1.1 (1 ug/mL)

UniProt P30530, sequence (P30530 26-451): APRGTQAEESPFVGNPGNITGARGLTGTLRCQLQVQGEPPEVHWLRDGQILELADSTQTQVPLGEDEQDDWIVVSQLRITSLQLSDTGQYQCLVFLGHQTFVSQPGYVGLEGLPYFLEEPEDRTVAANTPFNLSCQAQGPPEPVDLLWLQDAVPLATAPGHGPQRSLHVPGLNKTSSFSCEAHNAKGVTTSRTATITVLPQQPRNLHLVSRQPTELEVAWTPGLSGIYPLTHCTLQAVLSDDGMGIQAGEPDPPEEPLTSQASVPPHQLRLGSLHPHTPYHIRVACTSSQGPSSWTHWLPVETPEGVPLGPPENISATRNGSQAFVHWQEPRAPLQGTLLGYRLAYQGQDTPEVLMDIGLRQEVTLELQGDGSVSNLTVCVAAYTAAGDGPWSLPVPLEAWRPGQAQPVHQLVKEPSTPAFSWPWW

OD (650 nm) [1]: 2.13 OD (650 nm) | % competition [2]: 3.3% | OD (650 nm) [3]: 1.81 OD (650 nm) | % competition [4]: 1.5%
Substance: Cell Signaling rabbit monoclonal anti-AXL antibody AXL(C89E7)
